Experimental data from paper PMC3042367 (Biochemistry, 2010).

Biological target: R831b MerB (organomercurial lyase), unliganded (Serratia marcescens (plasmid R831b), UniProt P77072 1-212)
Test: stopped-flow fluorescence kinetics

Sequence of R831b MerB (organomercurial lyase), unliganded (P77072 whole entry): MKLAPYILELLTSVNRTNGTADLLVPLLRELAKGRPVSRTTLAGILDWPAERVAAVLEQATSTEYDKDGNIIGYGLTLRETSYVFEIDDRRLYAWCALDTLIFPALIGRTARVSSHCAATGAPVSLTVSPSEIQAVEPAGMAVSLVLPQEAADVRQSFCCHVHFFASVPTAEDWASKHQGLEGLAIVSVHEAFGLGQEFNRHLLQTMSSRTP

B1: HgNmerA, 1:1 Hg(II) complex of pDU1358 NmerA (domain or fragment, Serratia marcescens (plasmid pDU1358), UniProt P08662 1-69, looked up)
chain: MTHLKITGMTCDSCAAHVKEALEKVPGVQSAIVSYAKGAAQLALDPGTAPDALTAAVAGLGYKAMLADA
modifications: also: 1:1 Hg(II) complex bound to Cys11 and Cys14 (CXXC motif)
Q: How did the Kd turn out when B1 was run?
A: 660 µM

Q: And the koff?
A: 330 s⁻¹

Q: And the kon?
A: 500000 M⁻¹ s⁻¹
